Test results published in paper doi:10.1101/2024.07.30.605930 (bioRxiv, 2024).
Several values for one entry are separate records, joined by “and”; a condition that tells them apart may be missing. Identical values can stand only once.

Biological target: the molecule itself
Experiment: negative-stain EM

Protein	binding result
FliF(G217P) (natural protein, Salmonella enterica serovar Typhimurium) MSATASTATQPKPLEWLNRLRANPRIPLIVAGSAAVAIVVAMVLWAKTPDYRTLFSNLSDQDGGAIVAQLTQMNIPYRFANGSGAIEVPADKVHELRLRLAQQGLPKGGAVGFELLDQEKFGISQFSEQVNYQRALEGELARTIETLGPVKSARVHLAMPKPSLFVREQKSPSASVTVTLEPGRALDEGQISAVVHLVSSAVAGLPPGNVTLVDQSPHLLTQSNTSGRDLNDAQLKFANDVESRIQRRIEAILSPIVGNGNVHAQVTAQLDFANKEQTEEHYSPNGDASKATLRSRQLNISEQVGAGYPGGVPGALSNQPAPPNEAPIATPPTNQQNAQNTPQTSTSTNSNSAGPRSTQRNETSNYEVDRTIRHTKMNVGDIERLSVAVVVNYKTLADGKPLPLTADQMKQIEDLTREAMGFSDKRGDTLNVVNSPFSAVDNTGGELPFWQQQSFIDQLLAAGRWLLVLVVAWILWRKAVRPQLTRRVEEAKAAQEQAQVRQETEEAVEVRLSKDEQLQQRRANQRLGAEVMSQRIREMSDNDPRVVALVIRQWMSNDHE	binds
FliF(G217W) (natural protein, Salmonella enterica serovar Typhimurium) MSATASTATQPKPLEWLNRLRANPRIPLIVAGSAAVAIVVAMVLWAKTPDYRTLFSNLSDQDGGAIVAQLTQMNIPYRFANGSGAIEVPADKVHELRLRLAQQGLPKGGAVGFELLDQEKFGISQFSEQVNYQRALEGELARTIETLGPVKSARVHLAMPKPSLFVREQKSPSASVTVTLEPGRALDEGQISAVVHLVSSAVAGLPPGNVTLVDQSWHLLTQSNTSGRDLNDAQLKFANDVESRIQRRIEAILSPIVGNGNVHAQVTAQLDFANKEQTEEHYSPNGDASKATLRSRQLNISEQVGAGYPGGVPGALSNQPAPPNEAPIATPPTNQQNAQNTPQTSTSTNSNSAGPRSTQRNETSNYEVDRTIRHTKMNVGDIERLSVAVVVNYKTLADGKPLPLTADQMKQIEDLTREAMGFSDKRGDTLNVVNSPFSAVDNTGGELPFWQQQSFIDQLLAAGRWLLVLVVAWILWRKAVRPQLTRRVEEAKAAQEQAQVRQETEEAVEVRLSKDEQLQQRRANQRLGAEVMSQRIREMSDNDPRVVALVIRQWMSNDHE	binds
FliF(Δ165–167) (natural protein, Salmonella enterica serovar Typhimurium) MSATASTATQPKPLEWLNRLRANPRIPLIVAGSAAVAIVVAMVLWAKTPDYRTLFSNLSDQDGGAIVAQLTQMNIPYRFANGSGAIEVPADKVHELRLRLAQQGLPKGGAVGFELLDQEKFGISQFSEQVNYQRALEGELARTIETLGPVKSARVHLAMPKPSLEQKSPSASVTVTLEPGRALDEGQISAVVHLVSSAVAGLPPGNVTLVDQSGHLLTQSNTSGRDLNDAQLKFANDVESRIQRRIEAILSPIVGNGNVHAQVTAQLDFANKEQTEEHYSPNGDASKATLRSRQLNISEQVGAGYPGGVPGALSNQPAPPNEAPIATPPTNQQNAQNTPQTSTSTNSNSAGPRSTQRNETSNYEVDRTIRHTKMNVGDIERLSVAVVVNYKTLADGKPLPLTADQMKQIEDLTREAMGFSDKRGDTLNVVNSPFSAVDNTGGELPFWQQQSFIDQLLAAGRWLLVLVVAWILWRKAVRPQLTRRVEEAKAAQEQAQVRQETEEAVEVRLSKDEQLQQRRANQRLGAEVMSQRIREMSDNDPRVVALVIRQWMSNDHE	binds
FliF(Δ214–220) (natural protein, Salmonella enterica serovar Typhimurium) MSATASTATQPKPLEWLNRLRANPRIPLIVAGSAAVAIVVAMVLWAKTPDYRTLFSNLSDQDGGAIVAQLTQMNIPYRFANGSGAIEVPADKVHELRLRLAQQGLPKGGAVGFELLDQEKFGISQFSEQVNYQRALEGELARTIETLGPVKSARVHLAMPKPSLFVREQKSPSASVTVTLEPGRALDEGQISAVVHLVSSAVAGLPPGNVTLVTQSNTSGRDLNDAQLKFANDVESRIQRRIEAILSPIVGNGNVHAQVTAQLDFANKEQTEEHYSPNGDASKATLRSRQLNISEQVGAGYPGGVPGALSNQPAPPNEAPIATPPTNQQNAQNTPQTSTSTNSNSAGPRSTQRNETSNYEVDRTIRHTKMNVGDIERLSVAVVVNYKTLADGKPLPLTADQMKQIEDLTREAMGFSDKRGDTLNVVNSPFSAVDNTGGELPFWQQQSFIDQLLAAGRWLLVLVVAWILWRKAVRPQLTRRVEEAKAAQEQAQVRQETEEAVEVRLSKDEQLQQRRANQRLGAEVMSQRIREMSDNDPRVVALVIRQWMSNDHE	binds
FliFΔ(221–227) (natural protein, Salmonella enterica serovar Typhimurium) MSATASTATQPKPLEWLNRLRANPRIPLIVAGSAAVAIVVAMVLWAKTPDYRTLFSNLSDQDGGAIVAQLTQMNIPYRFANGSGAIEVPADKVHELRLRLAQQGLPKGGAVGFELLDQEKFGISQFSEQVNYQRALEGELARTIETLGPVKSARVHLAMPKPSLFVREQKSPSASVTVTLEPGRALDEGQISAVVHLVSSAVAGLPPGNVTLVDQSGHLLRDLNDAQLKFANDVESRIQRRIEAILSPIVGNGNVHAQVTAQLDFANKEQTEEHYSPNGDASKATLRSRQLNISEQVGAGYPGGVPGALSNQPAPPNEAPIATPPTNQQNAQNTPQTSTSTNSNSAGPRSTQRNETSNYEVDRTIRHTKMNVGDIERLSVAVVVNYKTLADGKPLPLTADQMKQIEDLTREAMGFSDKRGDTLNVVNSPFSAVDNTGGELPFWQQQSFIDQLLAAGRWLLVLVVAWILWRKAVRPQLTRRVEEAKAAQEQAQVRQETEEAVEVRLSKDEQLQQRRANQRLGAEVMSQRIREMSDNDPRVVALVIRQWMSNDHE	binds
FliF(G217A) (natural protein, Salmonella enterica serovar Typhimurium) MSATASTATQPKPLEWLNRLRANPRIPLIVAGSAAVAIVVAMVLWAKTPDYRTLFSNLSDQDGGAIVAQLTQMNIPYRFANGSGAIEVPADKVHELRLRLAQQGLPKGGAVGFELLDQEKFGISQFSEQVNYQRALEGELARTIETLGPVKSARVHLAMPKPSLFVREQKSPSASVTVTLEPGRALDEGQISAVVHLVSSAVAGLPPGNVTLVDQSAHLLTQSNTSGRDLNDAQLKFANDVESRIQRRIEAILSPIVGNGNVHAQVTAQLDFANKEQTEEHYSPNGDASKATLRSRQLNISEQVGAGYPGGVPGALSNQPAPPNEAPIATPPTNQQNAQNTPQTSTSTNSNSAGPRSTQRNETSNYEVDRTIRHTKMNVGDIERLSVAVVVNYKTLADGKPLPLTADQMKQIEDLTREAMGFSDKRGDTLNVVNSPFSAVDNTGGELPFWQQQSFIDQLLAAGRWLLVLVVAWILWRKAVRPQLTRRVEEAKAAQEQAQVRQETEEAVEVRLSKDEQLQQRRANQRLGAEVMSQRIREMSDNDPRVVALVIRQWMSNDHE	binds

Biological target: the molecule itself
Experiment: cryo-EM structure

Protein	stoichiometry N
FliF (natural protein, Salmonella enterica serovar Typhimurium, UniProt P15928 1-560, looked up) MSATASTATQPKPLEWLNRLRANPRIPLIVAGSAAVAIVVAMVLWAKTPDYRTLFSNLSDQDGGAIVAQLTQMNIPYRFANGSGAIEVPADKVHELRLRLAQQGLPKGGAVGFELLDQEKFGISQFSEQVNYQRALEGELARTIETLGPVKSARVHLAMPKPSLFVREQKSPSASVTVTLEPGRALDEGQISAVVHLVSSAVAGLPPGNVTLVDQSGHLLTQSNTSGRDLNDAQLKFANDVESRIQRRIEAILSPIVGNGNVHAQVTAQLDFANKEQTEEHYSPNGDASKATLRSRQLNISEQVGAGYPGGVPGALSNQPAPPNEAPIATPPTNQQNAQNTPQTSTSTNSNSAGPRSTQRNETSNYEVDRTIRHTKMNVGDIERLSVAVVVNYKTLADGKPLPLTADQMKQIEDLTREAMGFSDKRGDTLNVVNSPFSAVDNTGGELPFWQQQSFIDQLLAAGRWLLVLVVAWILWRKAVRPQLTRRVEEAKAAQEQAQVRQETEEAVEVRLSKDEQLQQRRANQRLGAEVMSQRIREMSDNDPRVVALVIRQWMSNDHE	33 and 34
